# Paper PMC5458804 (Nature cell biology, 2017)
# Changes are numbered by the printed parent chain. In names and notes the source's numbering stands.
# B1: p60N (N-terminal domain of katanin p60) (domain or fragment)
# chain: MSLQMIVENVKLAREYALLGNYDSAMVYYQGVLDQMNKYLYSVKDTHLRQKWQQVWQEINVEAKQVKDIMKTLESFKL
# B2: p60N-L18A (domain or fragment)
# chain: B1 chain with L18A
# B3: p60N-L19A (domain or fragment)
# chain: B1 chain with L19A
# What was measured:
# [1] = target: p60N/p80C heterodimer (mouse) (UniProt Q9WV86); assay: crystal structure
# [2] = target: p60N/p80C heterodimer (mouse) (UniProt Q9WV86); assay: AUC
# [3] = target: p80C (C-terminal domain of katanin p80) (mouse, UniProt Q8BG40 481-658); assay: AUC
# p80C (C-terminal domain of katanin p80), sequence (Q8BG40 481-658): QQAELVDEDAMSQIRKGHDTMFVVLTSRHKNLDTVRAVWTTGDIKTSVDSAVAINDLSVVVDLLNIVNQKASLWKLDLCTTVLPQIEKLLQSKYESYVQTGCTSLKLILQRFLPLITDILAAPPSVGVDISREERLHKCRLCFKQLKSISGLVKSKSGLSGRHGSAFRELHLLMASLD
# p80C-S538L = p80C-S538L (mouse, UniProt Q8BG40 481-658, S538L); assay: AUC
# p80C-S538L, sequence (Q8BG40 481-658 S538L): as the sequence (Q8BG40 481-658) above, with S58L counted along it
# p80C-Y574A = p80C-Y574A (mouse, UniProt Q8BG40 481-658, Y574A); assay: AUC
# p80C-Y574A, sequence (Q8BG40 481-658 Y574A): as the sequence (Q8BG40 481-658) above, with Y94A counted along it
# p80C-R615A = p80C-R615A (mouse, UniProt Q8BG40 481-658, R615A); assay: AUC
# p80C-R615A, sequence (Q8BG40 481-658 R615A): as the sequence (Q8BG40 481-658) above, with R135A counted along it
molecule,measurement,setting,value
"ASPMp (peptide corresponding to the third repeat of ASPM, as crystallised)",stoichiometry N,[1],1
TAMRA-labeled ASPMp peptide,Kd,[2],9 µM
B1,binding result,[3],binds
same,binding result,p80C-S538L,binds
same,binding result,p80C-Y574A,binds
same,binding result,p80C-R615A,binds
B2,binding result,[3],binds
B3,binding result,[3],binds
